The assay has as its target ANF-RGC 669WTAPELL675 deletion mutant (UniProt P18910). Put plainly: radioligand binding.
Sequence of UniProt P18910 (P18910 29-1057, stated change not applied): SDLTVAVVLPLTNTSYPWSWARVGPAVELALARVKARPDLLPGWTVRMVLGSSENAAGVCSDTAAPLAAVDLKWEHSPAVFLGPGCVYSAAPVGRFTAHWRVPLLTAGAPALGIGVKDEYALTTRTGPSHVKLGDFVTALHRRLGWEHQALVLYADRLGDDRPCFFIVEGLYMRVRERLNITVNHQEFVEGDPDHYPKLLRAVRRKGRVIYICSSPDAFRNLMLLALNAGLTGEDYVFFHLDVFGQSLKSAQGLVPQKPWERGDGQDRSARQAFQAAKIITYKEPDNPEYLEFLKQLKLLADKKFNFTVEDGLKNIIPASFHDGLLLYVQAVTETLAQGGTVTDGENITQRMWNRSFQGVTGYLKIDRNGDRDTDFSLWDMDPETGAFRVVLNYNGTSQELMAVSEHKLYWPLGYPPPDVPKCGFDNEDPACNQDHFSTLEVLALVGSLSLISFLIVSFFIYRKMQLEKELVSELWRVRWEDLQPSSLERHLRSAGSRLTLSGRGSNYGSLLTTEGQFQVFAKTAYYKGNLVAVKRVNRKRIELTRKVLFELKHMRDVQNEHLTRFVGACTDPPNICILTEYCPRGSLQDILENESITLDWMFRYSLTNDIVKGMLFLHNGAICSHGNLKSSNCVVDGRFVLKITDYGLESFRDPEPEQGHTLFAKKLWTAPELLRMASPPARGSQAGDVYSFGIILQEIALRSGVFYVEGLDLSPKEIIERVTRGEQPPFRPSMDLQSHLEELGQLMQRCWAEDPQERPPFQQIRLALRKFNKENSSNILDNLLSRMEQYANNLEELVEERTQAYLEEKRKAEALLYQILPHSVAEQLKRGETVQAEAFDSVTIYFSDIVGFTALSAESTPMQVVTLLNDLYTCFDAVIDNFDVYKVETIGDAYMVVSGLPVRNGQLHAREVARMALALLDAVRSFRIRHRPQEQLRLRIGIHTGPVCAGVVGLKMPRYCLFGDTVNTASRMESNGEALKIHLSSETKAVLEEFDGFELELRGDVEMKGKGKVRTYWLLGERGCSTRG

In turn, “atrial natriuretic factor (ANF) (peptide)” yielded a specific binding (pmol [125I]ANF/mg protein) of 10.1.
